“Also recorded” adds a separate entry of the source.
Assays:
[1] = format: binding; conditions: ligand in 50-fold molar excess, relative to water control; listed as ecKASIII
[2] = Kinetic parameters of aaKASIII and ecKASIII (spectrophotometric enzyme assay); format: biochemical
Description: Therefore, aaKASIII was assayed with 3-hydroxybutyryl-CoA as a substrate, and its specific activity was determined using an in vitro spectrophotometric enzyme assay. KASIII enzyme assays were carried out spectrophotometrically using 400 μM ACP, 400 μM malonyl-CoA, 10-400 μM various acyl-CoAs, 400 μM NADPH, 1 mM DTT, 6 mg/ml FabD, 1.5 mg/ml FabG, and either 4 mg/ml of aaKASIII or 9.5 mg/ml of ecKASIII. The specific activity for this reaction catalysed by aaKASIII was 5-fold and 3-fold higher with isobutyryl-CoA and 3-hydroxybutyryl-CoA, respectively, than that obtained with acetyl-CoA.

[3] = test system: B. subtilis ΔyjaXΔyhfB mutant strain; experiment: Genetic complementation of B. subtilis ΔyjaXΔyhfB double mutant with KASIII genes; conditions: grown without exogenous branched-chain fatty acids, IPTG induced
Description: Genetic complementation of the B. subtilis ΔyjaXΔyhfB double mutant strain with aaKASIII, taKASIII or ecKASIII expression vectors was conducted using pUCB-erm-derived plasmids carrying the different KASIII ORF sequences. In these vectors each of the different KASIII ORFs were under the control of the Pspac promoter and were inserted between the downstream and upstream DNA fragments of the 135-bp ORF in the ΔyhfB allele of the ΔyjaXΔyhfB::erm double mutant.
The B. subtilis ΔyjaXΔyhfB mutant strain was used as a vehicle to screen for KASIII enzymes that can utilize branched-chain acyl-CoA substrates and can therefore synthesize branched-chain fatty acids, thereby rescuing the lethal ΔyjaXΔyhfB deletion phenotype. […] The resulting three B. subtilis ΔyjaXΔyhfB mutant strains, each expressing one of the recombinant KASIII genes (due to the inclusion of the inducer IPTG in the media), were grown in the absence of exogenously supplied branched-chain fatty acids.

[4] = Melting temperatures (Tm) of KASIII enzymes without ligand; format: physicochemical; conditions: in water, no ligand, baseline Tm
[5] = Saturation Transfer Difference NMR of KASIII enzymes with acetyl-CoA or isobutyryl-CoA; format: binding; conditions: protein/ligand 1:100, 25° C.
Description: NMR experiments were performed at 25° C. on a Bruker AV700 MHz spectrometer equipped with a 5 mm HCN cryoprobe. Samples for STD NMR experiments were prepared in 0.1 M sodium phosphate buffer (pH 7.4) with 5% D2O. The protein/ligand ratio was set as 1:100 with KASIII concentration in the 20-25 μM range. Saturation was applied as CW pulse with a power of 58-60 Hz, with on-resonance pulses at 0.62 ppm and 6.86 ppm for upfield and downfield, respectively. The off-resonance pulse was applied at 45 ppm. 3-9-19 WATERGATE suppression was used with a T1-ρ filter. Saturation time of five seconds with an additional delay of 5.1 seconds was used. A set of three replicates was acquired, with 32 scans in each replicate, for each STD NMR experiment of KASIII wild-type or mutated enzyme with a ligand, which was either acetyl-CoA or isobutyryl-CoA (Sigma-Aldrich, St. Louis, Mo.). The reference and the saturated spectra were obtained in an interleaved manner. Resonance assignments of 1H NMR spectra of free ligands were completed using ID 1H and COSY.
Control experiments were carried out by applying on- and off-resonance saturation pulses either to the ligand in the absence of protein, or to the ligand in the presence of denatured protein.
Relative STD effects (ASTD) were calculated according to the equation ASTD=(Io−Isat)/Io where Isat is the signal intensity of the saturated spectrum and Io is the signal intensity of the reference spectrum (Mayer et al., J. Am. Chem. Soc. 123: 6108-6117 (2001)). STD amplification factor was calculated according to the equation: STDaf=ASTD×molar ligand excess.
STD NMR experiments elucidated interactions of these purified enzymes (both wild-type and mutated) with straight-chain substrate (acetyl-CoA) and branched-chain substrate (isobutyryl-CoA) and enabled mapping of binding epitopes on the two substrates. Relative saturation transfer to each of the binding epitopes was measured and converted to the STD amplification factor (STDaf), which is an indicator of ligand binding (Mayer et al., J. Am. Chem. Soc. 123: 6108-6117 (2001)). Ligand epitopes with high STDaf values are assumed to receive higher saturation transfer from the enzyme, and thus are in close contact with the enzyme.

[6] = Spectrophotometric coupled assay (FabD/FabG, NADPH at 340 nm) of KASIII specific activity with acyl-CoA substrates; conditions: n.d. = not detectable
Description: The method comprises (i) incubating holo-ACP, malonyl-CoA, acyl-CoA, NADPH, and malonyl-CoA:ACP transacylase (FabD), (ii) adding KASIII and 3-ketoacyl-ACP reductase (FabG), and (iii) measuring the change in absorbance at 340 nm when NADPH is converted to NADP+ during reduction of 3-ketoacyl-ACP to 3-hydroxyl-acyl ACP by FabG.
Activity of A. acidocaldarius KASIII with different acyl-CoA substrates (acetyl-CoA, isobutyryl-CoA and 3-hydroxybutyryl-CoA (Sigma-Aldrich)) was ascertained by a coupled assay. The assay was performed in 96-well plate format with three replicates for each reaction condition. In a total volume of 100 μl for each reaction the reaction mix containing 100 μM holo-ACP, 200 μM malonyl-CoA, 10 mM DTT, 50 μM acyl-CoA substrate (either acetyl-CoA, isobutyryl-CoA or 3-hydroxy-butyryl-CoA) and 200 μM NADPH in 0.1 M sodium phosphate buffer (pH 7.2) was pre-incubated with 60 μg of FabD for two minutes. The reaction was started by the addition of 30 μg of FabG and varying concentrations of A. acidocaldarius (0.5-15 μg). Change in absorbance of NADPH that was being converted to NADP^+ during reduction of 3-ketoacyl-ACP 3-hydroxy-acyl-ACP by FabG was recorded at 340 nm using a Biotek multi-plate reader.
Spectrophotometric assay was used to assess the activity of A. acidocaldarius KASIII with various acyl-CoA substrates. The assay coupled the appearance of the KASIII-product (3-ketoacyl-ACP) to the oxidation of NADPH, catalyzed by 3-ketoacyl-ACP reductase (FabG).
KASIII enzymatic activity was ascertained via spectrophotometric assay, which coupled the appearance of 3-ketoacyl-ACP to the oxidation of NADPH, using the E. coli FabG protein to reduce 3-ketoacyl-ACP to 3-hydroxyacyl-ACP. The assay was performed in a 96-well plate-format with three technical replicates for each reaction condition. In a total volume of 100 μl for each reaction, the reaction mix contained 100 μM holo-ACP, 200 μM malonyl-CoA, 10 mM DTT, 50 μM acyl-CoA substrate, and 200 μM NADPH in 0.1 M sodium phosphate buffer (pH 7.2). This mixture was pre-incubated with 60 μg of FabD for two minutes to initiate synthesis of malonyl-ACP from malonyl-CoA and holo-ACP. The reaction was then started by the addition of 30 μg of FabG and varying concentrations of KASIII enzyme (0.5-15 μg). As KASIII catalysed the condensation of acyl-CoA with malonyl-ACP to form 3-ketoacyl-ACP, FabG reduced the 3-ketoacyl-ACP intermediate to 3-hydroxy-acyl ACP in the presence of NADPH.

Substance: E. coli KASIII Wild-type: E. coli 3-ketoacyl-ACP synthase III encoded by fabH, GenBank AAG55837.1, amino acid sequence SEQ ID NO:62
- Thermal shift: increase in Tm with acetyl-CoA [1]: bound; also recorded: positive thermal shifts
- Thermal shift: increase in Tm with propionyl-CoA [1]: bound; also recorded: positive thermal shifts
- Kinetic parameters (whole line) ([2]; substrate 3-OH-butyryl-CoA): not a substrate
- Km ([2]; substrate acetyl-CoA): 96.8 ± 4.7 µM
- Specific Activity ([2]; substrate acetyl-CoA): 447 ± 68 nmol/mg/min
- Vmax ([2]; substrate acetyl-CoA): 0.00033 ± 1e-05 µmol/s
- kcal ([2]; substrate acetyl-CoA): 0.0214 ± 0.00093 s⁻¹
- Kinetic parameters (whole line) ([2]; substrate isobutyryl-CoA): not a substrate
- Rescue of the lethal phenotype of the B. subtilis ΔyjaXΔyhfB mutant strain [3]: could not
- Melting temperature (Tm) without ligand [4]: 55.0 ± 0.18 °C
- Melting temperature (Tm) without ligand ([4]; listed as ecKASIII): ~55.0 °C
- STD amplification factor (STDaf), HAP proton of acetyl-CoA [5]: ~6.0
- STD amplification factor (STDaf), HB proton of isobutyryl-CoA [5]: ~4.0
- STD amplification factor (STDaf), HT proton of acetyl-CoA [5]: ~5.0
- STD amplification factor (STDaf), HT proton of isobutyryl-CoA [5]: 2.5
- Specific Activity with Acetyl-CoA ([6]; substrate acetyl-CoA): 447 ± 68 nmol/min/mg
- Specific Activity with Isobutyryl-CoA ([6]; substrate isobutyryl-CoA): 36 ± 14 nmol/min/mg
